Experimental findings from the RNAGym collection of RNA variant scans (doi:10.1093/molbev/msab373) are described below.

B1: Azoarcus group I ribozyme (parent)
chain: GUGCCUUGCGCCGGGAAACCACGCAAGGGAUGGUGUCAAAUUCGGCGAAACCUAAGCGCCCGCCCGGGCGUAUGGCAACGCCGAGCCAAGCUUCGGCGCCUGCGCCGAUGAAGGUGUAGAGACUAGACGGCACCCACCUAAGGCAAACGCUAUGGUGAAGGCAUAGUCCAGGGAGUGGCGAAAGUCACACAAACCGG

Variants of B1 are the subject of this data set. Briefly: reverse-splicing fitness (ratio to wild type); higher = more active; in vitro selection; Mg2+ level not given. Summed up:
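An in vitro group I ribozyme library with randomized positions was T7-transcribed and gel-purified. In triplicate, 10 pmol RNA in EPPS pH 7.5 was reacted with 50 pmoles of a 30-nt RNA substrate for 1 h at 37 °C across several added MgCl2 levels (1–48 mM), then stopped with EDTA. Products were reverse transcribed from a substrate-complementary primer, PCR-amplified and sequenced (HiSeq 4000). Fitness is a variant's read proportion after selection over that before, normalised to wild type.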
Take GUGCCUUGCGCCGGGAAACCACGCAAGGGAUGGUGUCAAAUUCGGCGAAACCUAAGCGCCCGCCCGGGCGUAUGGCAACGCUGAGCCAAGCUUCGGCGCCUGCGCCGAUGGAGGUGUAGAGACUAGACGGCACCCACCUAAGGCUAACGGUAUGGUGAAGGCAUAGUCUAGGGAGUGGCGAAAGUCACACAAACCGG: the reverse-splicing fitness was determined as 0.00901. GUGCCUUGCGCCGGGAAACCACGCAAGGGAUGGUGUCAAAUUCGGCGAAACCUAAGCGCCCGCCCGGGCGUAUGGCAACGCAGAGCCAAGCUUCGGCGCCUGCGCCGAUGGAGGUGUAGUGACUAGACGGCACCCACCUAAGGCUAACGAUAUGGUGAAGGCAUAGUCCAGGGAGCGGCGAAAGUCACACAAACCGG: the reverse-splicing fitness was 0.00602.

For GUGCCUUGCGCCGGGAAACCACGCAAGGGAUGGUGUCAAAUUCGGCGAAACCUAAGCGCCCGCCCGGGCGUAUGGCAACGCGGAGCCAAGCUUCGGCGCCUGCGCCGAUGCAGGUGUAGAGACUAGACGGCACCCACCUAAGGCCAACGCUAUGGUGAAGGCAUAGUCAAGGGAGGGGCGAAAGUCACACAAACCGG, the reverse-splicing fitness was found to be 0.00713. For GUGCCUUGCGCCGGGAAACCACGCAAGGGAUGGUGUCAAAUUCGGCGAAACCUAAGCGCCCGCCCGGGCGUAUGGCAACGCUGAGCCAAGCUUCGGCGCCUGCGCCGAUGGAGGUGUAGAGACUAGACGGCACCCACCUAAGGCUAACGCUAUGGUGAAGGCAUAGUCUAGGGAGAGGCGAAAGUCACACAAACCGG, the reverse-splicing fitness was found to be 0.012.

Take GUGCCUUGCGCCGGGAAACCACGCAAGGGAUGGUGUCAAAUUCGGCGAAACCUAAGCGCCCGCCCGGGCGUAUGGCAACGCUGAGCCAAGCUUCGGCGCCUGCGCCGAUGCAGGUGUAGCGACUAGACGGCACCCACCUAAGGCGAACGAUAUGGUGAAGGCAUAGUCGAGGGAGCGGCGAAAGUCACACAAACCGG: the reverse-splicing fitness came out at 0.0245. To GUGCCUUGCGCCGGGAAACCACGCAAGGGAUGGUGUCAAAUUCGGCGAAACCUAAGCGCCCGCCCGGGCGUAUGGCAACGCAGAGCCAAGCUUCGGCGCCUGCGCCGAUGAAGGUGUAGGGACUAGACGGCACCCACCUAAGGCCAACGAUAUGGUGAAGGCAUAGUCAAGGGAGAGGCGAAAGUCACACAAACCGG belongs 0.0126; to GUGCCUUGCGCCGGGAAACCACGCAAGGGAUGGUGUCAAAUUCGGCGAAACCUAAGCGCCCGCCCGGGCGUAUGGCAACGCUGAGCCAAGCUUCGGCGCCUGCGCCGAUGAAGGUGUAGCGACUAGACGGCACCCACCUAAGGCAAACGUUAUGGUGAAGGCAUAGUCGAGGGAGAGGCGAAAGUCACACAAACCGG, 0.0126.

GUGCCUUGCGCCGGGAAACCACGCAAGGGAUGGUGUCAAAUUCGGCGAAACCUAAGCGCCCGCCCGGGCGUAUGGCAACGCCGAGCCAAGCUUCGGCGCCUGCGCCGAUGGAGGUGUAGAGACUAGACGGCACCCACCUAAGGCUAACGCUAUGGUGAAGGCAUAGUCUAGGGAGGGGCGAAAGUCACACAAACCGG: the reverse-splicing fitness came to 0.00767. In the case of GUGCCUUGCGCCGGGAAACCACGCAAGGGAUGGUGUCAAAUUCGGCGAAACCUAAGCGCCCGCCCGGGCGUAUGGCAACGCCGAGCCAAGCUUCGGCGCCUGCGCCGAUGGAGGUGUAGAGACUAGACGGCACCCACCUAAGGCCAACGCUAUGGUGAAGGCAUAGUCUAGGGAGGGGCGAAAGUCACACAAACCGG, the reverse-splicing fitness was 0.00859.

With GUGCCUUGCGCCGGGAAACCACGCAAGGGAUGGUGUCAAAUUCGGCGAAACCUAAGCGCCCGCCCGGGCGUAUGGCAACGCGGAGCCAAGCUUCGGCGCCUGCGCCGAUGCAGGUGUAGUGACUAGACGGCACCCACCUAAGGCGAACGGUAUGGUGAAGGCAUAGUCGAGGGAGCGGCGAAAGUCACACAAACCGG, the reverse-splicing fitness was 0.00829. To GUGCCUUGCGCCGGGAAACCACGCAAGGGAUGGUGUCAAAUUCGGCGAAACCUAAGCGCCCGCCCGGGCGUAUGGCAACGCCGAGCCAAGCUUCGGCGCCUGCGCCGAUGGAGGUGUAGGGACUAGACGGCACCCACCUAAGGCCAACGCUAUGGUGAAGGCAUAGUCAAGGGAGGGGCGAAAGUCACACAAACCGG belongs 0.00382; to GUGCCUUGCGCCGGGAAACCACGCAAGGGAUGGUGUCAAAUUCGGCGAAACCUAAGCGCCCGCCCGGGCGUAUGGCAACGCAGAGCCAAGCUUCGGCGCCUGCGCCGAUGAAGGUGUAGGGACUAGACGGCACCCACCUAAGGCCAACGAUAUGGUGAAGGCAUAGUCGAGGGAGCGGCGAAAGUCACACAAACCGG, 0.0138. With GUGCCUUGCGCCGGGAAACCACGCAAGGGAUGGUGUCAAAUUCGGCGAAACCUAAGCGCCCGCCCGGGCGUAUGGCAACGCGGAGCCAAGCUUCGGCGCCUGCGCCGAUGCAGGUGUAGAGACUAGACGGCACCCACCUAAGGCCAACGUUAUGGUGAAGGCAUAGUCGAGGGAGUGGCGAAAGUCACACAAACCGG, the reverse-splicing fitness is 0.00777.

Consider GUGCCUUGCGCCGGGAAACCACGCAAGGGAUGGUGUCAAAUUCGGCGAAACCUAAGCGCCCGCCCGGGCGUAUGGCAACGCUGAGCCAAGCUUCGGCGCCUGCGCCGAUGAAGGUGUAGCGACUAGACGGCACCCACCUAAGGCCAACGUUAUGGUGAAGGCAUAGUCAAGGGAGAGGCGAAAGUCACACAAACCGG, for which the reverse-splicing fitness was found to be 0.00715. To GUGCCUUGCGCCGGGAAACCACGCAAGGGAUGGUGUCAAAUUCGGCGAAACCUAAGCGCCCGCCCGGGCGUAUGGCAACGCAGAGCCAAGCUUCGGCGCCUGCGCCGAUGUAGGUGUAGGGACUAGACGGCACCCACCUAAGGCGAACGUUAUGGUGAAGGCAUAGUCCAGGGAGGGGCGAAAGUCACACAAACCGG belongs 0.00803.
